Ends that are not written are not given here.
Columns and labels:
[1] = biological target: protease domain (heavy chain) of murine urokinase-type plasminogen activator (muPA WT, after plasmin cleavage) (mouse (murine)) (UniProt P06869)
[2] = biological target: T1, protease domain (heavy chain) of murine urokinase-type plasminogen activator (muPA WT, after plasmin cleavage) (mouse (murine), UniProt P06869 180-433, C281 (122CT) disulfide-bonded to C149 (1CT) of the light chain); assay: HDX-MS; two-chain muPA (light chain disulfide-bonded to the protease domain; WT 20 μM, F(−2)CTA 8.5 μM, K4CTG 13 μM) compared with No-Light-Chain muPA (10 μM); PBS pH 7.4, 22 °C, deuteration 0, 30, 60, 120, 600 s; settings: both partners purified
T1 construct: Stood in the assay as one of the two chains of muPA WT or of its light-chain mutants; also called serine protease domain
T1 sequence (P06869 180-433): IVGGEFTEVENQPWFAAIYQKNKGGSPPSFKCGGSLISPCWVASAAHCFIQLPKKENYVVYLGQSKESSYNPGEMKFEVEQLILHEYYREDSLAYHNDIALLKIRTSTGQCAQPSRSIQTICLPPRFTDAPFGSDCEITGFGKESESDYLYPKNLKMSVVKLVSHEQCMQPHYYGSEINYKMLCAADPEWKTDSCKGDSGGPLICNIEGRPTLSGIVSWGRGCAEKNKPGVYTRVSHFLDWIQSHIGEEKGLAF

[3] = biological target: T1, protease domain (heavy chain) of murine …; assay: cell-based or functional assay

Sequence of protease domain (heavy chain) of murine urokinase-type plasminogen activator (muPA WT, after plasmin cleavage) (mouse (murine)) (P06869 180-433): as above

Question: For “light chain of muPA with the mutation F(−2CT)A (from UniProt P06869 153-179) (domain or fragment)”, which kcat of the amidolytic activity (chromogenic substrate S2444) of two-chain muPA F(−2CT)A [1] is on record?
Answer: The kcat of the amidolytic activity (chromogenic substrate S2444) of two-chain muPA F(−2CT)A was 12 s^–1.

B1: disordered light chain of murine urokinase-type plasminogen activator (muPA WT, after plasmin cleavage) (domain or fragment, mouse (murine), UniProt P06869 153-179, looked up)
chain: SLSKKPSSSVDQQGFQCGQKALRPRFK
modifications: not fully specified; also: disulfide to Cys281 of the protease domain chain, disulfide at 17, other end not in the chain
notes: Stood in the assay as one of the two chains of muPA WT (133-413), tethered to m2 by a disulfide bond; The construct has an N-terminal 6xHis-tag and a TEV protease cleavage site; also called disordered linker; light chain of muPA WT
Question: Does B1 bind [2]?
Answer: Result: binds

B2: light chain of muPA with the mutation K4CTG (domain or fragment, mouse (murine), UniProt P06869 153-179, looked up)
chain: SLSKKPSSSVDQQGFQCGQGALRPRFK
modifications: not fully specified; also: disulfide to Cys281 of the protease domain chain, disulfide at 17, other end not in the chain
Question: With B2 as the molecule, how does the “kcat of the amidolytic activity (chromogenic substrate S2444) of two-chain muPA K4CTG” value [3] read?
Answer: The value was 22 s^–1.
